This passage reports activity results from patent US20220136009, “COMPOSITIONS AND METHODS FOR SELECTIVE GENE REGULATION” (Encoded Therapeutics, Inc., published 2022).

Common to all, as to conditions: tags: NLS, HA tag
Data set [1] concerns the target Construct 4 eTF (eZF z1-VP64) (synthetic construct). Description: cell_activity; endogenous SCN1A mRNA in HEK293 vs EGFP-KASH; p=0.0097; also about 20-30% Scn1a upregulation in mouse hippocampus. Here is the method: (§1) HEK293 cells were cultured per standard methods, and transfected (FugeneHD, Promega) with 3 ug plasmid carrying an engineered transcription factor or control construct per well of a 6-well plate. 48h following transfection, cells were collected and RNA was isolated (Qiagen RNeasy Mini kit), and DNase treated. RNA (3 ug) was reverse transcribed using OligoDT primers (Superscript IV, Invitrogen). cDNA samples were analyzed by qPCR using Phusion Polymerase (New England Biolabs) and SYBR Green I: (30s at 98° C., 40×[10 sec at 98° C., 15 sec at 66° C., 15 sec at 72° C.]). Primers against SCN1A (5′-[…]-3′ (SEQ ID NO: 185); 5′-[…]-3′ (SEQ ID NO: 186)) were used to quantify levels of endogenous SCN1A transcript, and relative levels of SCN1A expression were determined by the delta-delta Ct method with GAPDH as a reference gene (5′-[…]′-3′ (SEQ ID NO: 187); 5′-[…]-3′ (SEQ ID NO: 188)). Data are presented as fold changes relative to the control condition.

Data set [2] deals with Construct 29 eTF (eZF z14-VP64) (synthetic construct). Description: cell_activity; endogenous SCN1A mRNA in HEK293 vs EGFP-KASH; p=0.164. The protocol:
as §1

The target of data set [3] is Construct 3 eTF (eZF z13-VP64) (synthetic construct). Put plainly: cell_activity; endogenous SCN1A mRNA in HEK293 vs EGFP-KASH; p=0.149. The protocol: as §1
Data set [4] has as its target Construct 30 eTF (eZF z13-VPR) (synthetic construct). Put plainly: cell_activity; SCN1A mRNA by RNAseq in iCell GABA neurons vs CBA-EGFP; SCN1A-selective among 40 neighbouring genes. Here is the method: iCell GABA neurons (Cellular Dynamics) were plated in a 6-well plate (˜1E6 cells/well) and maintained per manufacturer's recommended protocol. 72h following plating, recombinant AAV (serotype AAV-DJ) expressing EGFP or activator (Construct 30), which comprises a zinc finger DBD fused to a VPR TAD driven by a CBA promoter) under the control of a CBA promoter was added to the culture media at approximately 2E11 genome copies/well.
One week following infection, RNA was isolated from cultured cells (Qiagen RNeasy Mini kit), and DNase treated. RNAseq libraries were prepared from the recovered RNA, using the TruSeq Stranded mRNA library kit (Illumina) and sequenced on an Illumina NextSeq (2×75 cycle paired end sequencing). Sequencing reads were aligned to human genome (RNASTAR) and differential expression analysis was performed with DESeq2. Data are presented as fold change with respect to control (AAVDJ-CBA-EGFP) samples (see FIG. 4). Results are shown in TABLE 14 and FIG. 4 illustrates the relative expression of endogenous SCN1A and the 40 nearest neighboring gene transcripts presented as fold changes relative to the control condition. Construct 30, as described in TABLE 1, was able to specifically increase expression of the SCN1A gene, or the Nav1.1 protein, as compared to the other genes examined. […]

Construct 30 eTF (eZF z13-VPR) (synthetic construct), sequence (chain, as listed by the source): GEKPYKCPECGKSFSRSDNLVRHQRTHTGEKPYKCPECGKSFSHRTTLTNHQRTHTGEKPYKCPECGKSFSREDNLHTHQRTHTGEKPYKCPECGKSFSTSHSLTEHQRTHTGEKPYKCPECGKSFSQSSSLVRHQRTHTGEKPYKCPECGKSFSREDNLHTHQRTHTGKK

B1: z1 target site (dsDNA)
DNA 1: CTAGGTCAAGTGTAGGAG
DNA 2: CTCCTACACTTGACCTAG
With B1, the activity in data set [1] was 5.12 fold.

B2: z14 target site (dsDNA)
DNA 1: GAGGATACTGCAGAGGTC
DNA 2: GACCTCTGCAGTATCCTC
With B2, the activity in data set [2] worked out at 8.68 fold.

B3: z13 target site (dsDNA)
DNA 1: TAGGTACCATAGAGTGAG
DNA 2: CTCACTCTATGGTACCTA
For B3, the activity in data set [3] came out at 25.5 fold; in data set [4], 63 fold.
